Experimental data as given in patent US20060134719.

What was measured:
[1] = molecular target: T1, vasoactive intestinal peptide (VIP), P01282
T1 chain: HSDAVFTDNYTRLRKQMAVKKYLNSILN

[2] = molecular target: T2, C-type natriuretic peptide 22 (CNP 22), P23582
T2 chain: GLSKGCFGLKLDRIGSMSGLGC

[3] = molecular target: T3, melanin-concentrating hormone (MCH), P20382
T3 chain: DFDMLRCMLGRVYRPCWQV

[4] = molecular target: neuropeptide Y (NPY), P01303
[5] = molecular target: T4, A-type natriuretic peptide (ANP), P01160
T4 chain: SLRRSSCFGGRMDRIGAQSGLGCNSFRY

[6] = molecular target: T5, α-melanocyte stimulating hormone (α-MSH), P01189 (not fully specified)
T5 chain: SYSMEHFRWGKPV

B1: purified signal-FLAG-ARS-extracellular enzyme after the treatment with trypsin beads (protein)
chain: STQGFHVDHTAELRGIRWTSSLRRETSDYHRTLTPTLEALFVSSFQKTELEASCVGCSVLNYRDGNSSVLVHFQLHFLLRPLQTLSLGLEEELLQRGIRARLREHGISLAAYGTIVSAELTGRHKGPLAERDFKSGRCPGNSFSCGNSQCVTKVNPECDDQEDCSDGSDEAHCECGLQPAWRMAGRIVGGMEASPGEFPWQASLRENKEHFCGAAIINARWLVSAAHCFNEFQDPTKWVAYVGATYLSGSEASTVRAQVVQIVKHPLYNADTADFDVAVLELTSPLPFGRHIQPVCLPAATHIFPPSKKCLISGWGYLKEDFLVKPEVLQKATVELLDQALCASLYGHSLTDRMVCAGYLDGKVDSCQGDSGGPLVCEEPSGRFFLAGIVSWGIGCAEARRPGVYARVTRLRDWILEATTKASMPLAPTMAPAPAAPSTAWPTSPESPVVSTPTKSMQALSTVPLDWVTVPKLQGIFGAER
[1]
  cleavage of the substrate peptide, HPLC analysis after reaction at 37° C. for 16 hours: the enzyme sample selectively cleaved VIP, NPY, ANP, CNP, α-MSH, and MCH
[2]
  cleavage of the substrate peptide, HPLC analysis after reaction at 37° C. for 16 hours: the enzyme sample selectively cleaved VIP, NPY, ANP, CNP, α-MSH, and MCH
[3]
  cleavage of the substrate peptide, HPLC analysis after reaction at 37° C. for 16 hours: the enzyme sample selectively cleaved VIP, NPY, ANP, CNP, α-MSH, and MCH
[4]
  cleavage of the substrate peptide, HPLC analysis after reaction at 37° C. for 16 hours: the enzyme sample selectively cleaved VIP, NPY, ANP, CNP, α-MSH, and MCH
[5]
  cleavage of the substrate peptide, HPLC analysis after reaction at 37° C. for 16 hours: the enzyme sample selectively cleaved VIP, NPY, ANP, CNP, α-MSH, and MCH
[6]
  cleavage of the substrate peptide, HPLC analysis after reaction at 37° C. for 16 hours: the enzyme sample selectively cleaved VIP, NPY, ANP, CNP, α-MSH, and MCH
